Assays:
[1] = biological target: GFP-CENP-T^1–242^/3D-I3-01 (human) (UniProt Q96BT3); experiment: fluorescence intensity of single particles
[2] = biological target: GFP-CENP-T^1–242–I3-01 (human) (UniProt Q96BT3); experiment: fluorescence intensity of single particles
[3] = biological target: GFP-I3-01; experiment: fluorescence intensity of single particles
[4] = biological target: GFP-I3-01 (recombinant); experiment: fluorescence intensity of single particles
[5] = biological target: GFP-CENP-T^1–242^/3D (human) (UniProt Q96BT3); experiment: single-molecule TIRF binding assay; settings: scale: NDC80^Bonsai complexes per GFP-CENP-T^1–242^/3D molecule
[6] = biological target: GFP-CENP-T^1–242^/3D-I3-01 (human) (UniProt Q96BT3); experiment: single-molecule TIRF binding assay; settings: scale: NDC80^Bonsai molecules per GFP-CENP-T^1–242^/3D molecule
[7] = biological target: GFP-CENP-T^1–242–I3-01 (human) (UniProt Q96BT3); experiment: affinity purification with mass spectrometry

Substance: GFP-CENP-T^1–242^/3D-I3-01 (from UniProt Q96BT3 1-242)
- stoichiometry N (molecules per complex) [1]: 66

Substance: GFP-CENP-T^1–242–I3-01 (from UniProt Q96BT3 1-242)
- stoichiometry N (GFP molecules per oligomer) [2]: 41

Substance: GFP-I3-01
- stoichiometry N (GFP molecules per oligomer) [3]: 51

Substance: GFP-I3-01 (recombinant)
- stoichiometry N (GFP molecules per oligomer) [4]: 44

Substance: GFP-tagged NDC80^Bonsai complex
- stoichiometry N [5]: 0.28
- stoichiometry N [6]: 2.2

Substance: KNL1 complex (from UniProt Q8NG31 1-2342)
- fold more per CENP-T molecule than with monomeric GFP-CENP-T^1–242 [7]: 2.7 fold

Substance: MIS12 complex (from UniProt Q9H081 1-205)
- fold more per CENP-T molecule than with monomeric GFP-CENP-T^1–242 [7]: 5.4 fold

Substance: NDC80 complex (from UniProt O14777 1-642; Q8NBT2 1-197; Q9HBM1 1-224)
- fold more per CENP-T molecule than with monomeric GFP-CENP-T^1–242 [7]: 5.6 fold
